Publication PMC6711705, “Tailored tetravalent antibodies potently and specifically activate Wnt/Frizzled pathways in cells, organoids and mice” (eLife, 2019)
Like-named read-outs stand apart in the source and are kept apart here.

Legend:
Fc-tagged FZD7 CRD [1] = molecular target: T1, Fc-tagged FZD7 CRD (Homo sapiens, UniProt O75084)
Fc-tagged FZD2 CRD [2] = molecular target: T2, Fc-tagged FZD2 CRD (Homo sapiens, UniProt Q14332)
Fc-tagged FZD4 CRD [3] = molecular target: T3, Fc-tagged FZD4 CRD (Homo sapiens, UniProt Q9ULV1)
Target sequence in this assay (Q9ULV1 40-161): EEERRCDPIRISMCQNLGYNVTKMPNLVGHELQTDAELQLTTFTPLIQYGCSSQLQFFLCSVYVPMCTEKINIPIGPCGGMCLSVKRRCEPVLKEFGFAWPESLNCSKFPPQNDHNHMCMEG

Fc-tagged FZD1 CRD = molecular target: T4, Fc-tagged FZD1 CRD (Homo sapiens, UniProt Q9UP38); test: SPR; soluble F^P Fab or IgG injected over FZD-Fc immobilised on a GLC sensor by amine coupling; PBS, 0.05% Tween20, 0.5% BSA; 25 °C; 1:1 Langmuir model, global fit; conditions: both partners purified
T4 construct: Frizzled-1, human, cysteine rich domain (CRD); also called FZD1-Fc; source: bought: R and D Systems

Fc-tagged FZD4 CRD [4] = molecular target: T3, Fc-tagged FZD4 CRD; test: as above; conditions: both partners purified
Fc-tagged FZD2 CRD [5] = molecular target: T2, Fc-tagged FZD2 CRD; test: as above; conditions: both partners purified
Fc-tagged FZD7 CRD [6] = molecular target: T1, Fc-tagged FZD7 CRD; test: as above; conditions: both partners purified

B1: FLAg 7+7 (anti-FZD7 paratope) (antibody, V domains shown)
VH: EVQLVESGGGLVQPGGSLRLSCAASGFNISSSSMHWVRQAPGKGLEWVASIYSYYGSTYYADSVKGRFTISADTSKNTAYLQMNSLRAEDTAVYYCARWYGMDYWGQGTLVTVSS
VL: DIQMTQSPSSLSASVGDRVTITCRASQSVSSAVAWYQQKPGKAPKLLIYSASSLYSGVPSRFSGSRSGTDFTLTISSLQPEDFATYYCQQPGSWYFPPITFGQGTKVEIK
Fc-tagged FZD7 CRD [1]
  binding result: binds

B2: FLAg 2+2 (anti-FZD2 paratope) (antibody, V domains shown)
VH: EVQLVESGGGLVQPGGSLRLSCAASGFNIYYSSIHWVRQAPGKGLEWVASIYPYYGYTYYADSVKGRFTISADTSKNTAYLQMNSLRAEDTAVYYCARYYHYGLDYWGQGTLVTVSS
VL: DIQMTQSPSSLSASVGDRVTITCRASQSVSSAVAWYQQKPGKAPKLLIYSASSLYSGVPSRFSGSRSGTDFTLTISSLQPEDFATYYCQQSYWHSYLITFGQGTKVEIK
Fc-tagged FZD2 CRD [2]
  binding result: binds

B3: FLAg 4+4 (anti-FZD4 paratope) (antibody, V domains shown)
VH: EVQLVESGGGLVQPGGSLRLSCAASGFNSSFYFMHWVRQAPGKGLEWVATVYPYLDYTYYADSVKGRFTISADTSKNTAYLQMNSLRAEDTAVYYCARAFPGSYHPMDYWGQGTLVTVSS
VL: DIQMTQSPSSLSASVGDRVTITCRASQSVSSAVAWYQQKPGKAPKLLIYSASSLYSGVPSRFSGSRSGTDFTLTISSLQPEDFATYYCQQSSYSLITFGQGTKVEIK
Fc-tagged FZD4 CRD [3]
  binding result: binds

B4: F^P Fab (Fab, V domains shown)
VH: EVQLVESGGGLVQPGGSLRLSCAASGFNIGSSSIHWVRQAPGKGLEWVASIYSAFASTSYADSVKGRFTISADTSKNTAYLQMNSLRAEDTAVYYCARYHFPFGFALDYWGQGTLVTVSS
VL: DIQMTQSPSSLSASVGDRVTITCRASQSVSSAVAWYQQKPGKAPKLLIYSASSLYSGVPSRFSGSRSGTDFTLTISSLQPEDFATYYCQQGVYLFTFGQGTKVEIK
notes: VH as the F^P VH of m1; constant part of the Fab heavy chain; the Fab construct is not described; VL as the F^P VL of m1; constant part of the Fab light chain; Parent paratope of the N-terminal diabody of m1; also called pan-FZD Ab (F^P); source: Expi293F, transient transfection, purified (rProtein A Sepharose)
Fc-tagged FZD1 CRD
  binding result: binds
Fc-tagged FZD4 CRD [4]
  binding result: binds
Fc-tagged FZD2 CRD [5]
  binding result: binds
Fc-tagged FZD7 CRD [6]
  binding result: binds
